Measured values published in IntAct's records for PubMed 20618438.

B1: Hereditary hemochromatosis protein (Homo sapiens), Q30201 (parent)
chain: MGPRARPALLLLMLLQTAVLQGRLLRSHSLHYLFMGASEQDLGLSLFEALGYVDDQLFVFYDHESRRVEPRTPWVSSRISSQMWLQLSQSLKGWDHMFTVDFWTIMENHNHSKESHTLQVILGCEMQEDNSTEGYWKYGYDGQDHLEFCPDTLDWRAAEPRAWPTKLEWERHKIRARQNRAYLERDCPAQLQQLLELGRGVLDQQVPPLVKVTHHVTSSVTTLRCRALNYYPQNITMKWLKDKQPMDAKEFEPKDVLPNGDGTYQGWITLAVPPGEEQRYTCQVEHPGLDQPLIVIWEPSPSGTLVIGVISGIAVFVVILFIGILFIILRKRQGSRGAMGHYVLAERE

How the values were obtained:
[1] = variants of: B1; conditions: with trfe_human TF
[2] = variants of: B1; conditions: with b2mg_human B2M
[3] = variants of: B1; conditions: with tfr1_human TFRC
[4] = variants of: B1; conditions: with trfe_human TF; remark: listed apart in the source
[5] = variants of: B1; conditions: with trfe_human TF; remark: listed apart in the source
[6] = variants of: B1; conditions: with b2mg_human B2M; remark: listed apart in the source
[7] = variants of: B1; conditions: with trfe_human TF; remark: listed apart in the source

MGPRARPALLLLMLLQTAVLQGRLLRSHSLHYLFMGASEQDLGLSLFEALGYVDDQLFVFYDHESRRVEPRTPWVSSRISSQMWLQLSQSLKGWDHMFTVDFWTIMENHNHSKESHTLQVILGCEMQEDNSTEGYWKYGYDGQDHLEFCPDTLDWRAAEPRAWPTKLEWERHKIRARQNRAYLERDCPAQLQQLLELGRGVLDQQVPPLVKVTHHVTSSVTTLRCRALNYYPQNITMKWLKDKQPMDAKEFEPKDVLPNGDGTYQGWITLAVPPGEEQRYTYQVEHPGLDQPLIVIWEPSPSGTLVIGVISGIAVFVVILFIGILFIILRKRQGSRGAMGHYVLAERE [C282Y]
effect of a mutation on the interaction [1]: disrupting interaction | effect of a mutation on the interaction [2]: disrupting interaction

MGPRARPALLLLMLLQTAVLQGRLLRSHSLHYLFMGASEQDLGLSLFEALGYVDDQLFVFYDHESRRVEPRTPWVSSRISSQMWLQLSQSLKGWDHMFTVDFWTIMENHAHSKESHTLQVILGCEMQEDNSTEGYWKYGYDGQDHLEFCPDTLDWRAAEPRAWPTKLEWERHKIRARQNRAYLERDCPAQLQQLLELGRGVLDQQVPPLVKVTHHVTSSVTTLRCRALNYYPQNITMKWLKDKQPMDAKEFEPKDVLPNGDGTYQGWITLAVPPGEEQRYTCQVEHPGLDQPLIVIWEPSPSGTLVIGVISGIAVFVVILFIGILFIILRKRQGSRGAMGHYVLAERE [N110A]
effect of a mutation on the interaction [3]: disrupting interaction | effect of a mutation on the interaction [4]: disrupting interaction | effect of a mutation on the interaction [5]: decreasing interaction | effect of a mutation on the interaction [6]: disrupting interaction

MGPRARPALLLLMLLQTAVLQGRLLRSHSLHYLFMGASEQDLGLSLFEALGYVDDQLFVFYDHESRRVEPRTPWVSSRISSQMWLQLSQSLKGWDHMFTVDFWTIMENHNHSKESHTLQVILGCEMQEDASTEGYWKYGYDGQDHLEFCPDTLDWRAAEPRAWPTKLEWERHKIRARQNRAYLERDCPAQLQQLLELGRGVLDQQVPPLVKVTHHVTSSVTTLRCRALNYYPQNITMKWLKDKQPMDAKEFEPKDVLPNGDGTYQGWITLAVPPGEEQRYTCQVEHPGLDQPLIVIWEPSPSGTLVIGVISGIAVFVVILFIGILFIILRKRQGSRGAMGHYVLAERE [N130A]
effect of a mutation on the interaction [3]: disrupting interaction | effect of a mutation on the interaction [4]: disrupting interaction | effect of a mutation on the interaction [5]: decreasing interaction | effect of a mutation on the interaction [6]: disrupting interaction

MGPRARPALLLLMLLQTAVLQGRLLRSHSLHYLFMGASEQDLGLSLFEALGYVDDQLFVFYDHESRRVEPRTPWVSSRISSQMWLQLSQSLKGWDHMFTVDFWTIMENHNHSKESHTLQVILGCEMQEDNSTEGYWKYGYDGQDHLEFCPDTLDWRAAEPRAWPTKLEWERHKIRARQNRAYLERDCPAQLQQLLELGRGVLDQQVPPLVKVTHHVTSSVTTLRCRALNYYPQAITMKWLKDKQPMDAKEFEPKDVLPNGDGTYQGWITLAVPPGEEQRYTCQVEHPGLDQPLIVIWEPSPSGTLVIGVISGIAVFVVILFIGILFIILRKRQGSRGAMGHYVLAERE [N234A]
effect of a mutation on the interaction [7]: decreasing interaction | effect of a mutation on the interaction [6]: disrupting interaction
